{"source": "patent US20130302347A1", "about": "(Genentech, published 2013)", "binders": {"B1": {"name": "TMEM149-Fc (human TMEM149 extracellular domain with C-terminal human IgG1 Fc) (Fc fusion)", "chain": "SQYCGRLEYWNPDNKCCSSCLQRFGPPPCPDYEFRENCGLNDHGDFVTPPFRKCSSGQCNPDGAELCSPCGGGAVTPTPAAGGGRTPWRCRERPVPAKGHCPLTPGNPGAPSSQERSSPASSIAWRTPEPVPQQAWPN", "notes": "also called recombinant human TMEM149-Fc; Fc-TMEM149; not shown: human IgG1 Fc, C-terminal"}, "B2": {"name": "FLAG-mIGFL (recombinant mouse IGFL with N-terminal FLAG epitope tag) (ligand, not shown: small tags and cut ends)", "chain": "RKISTFSGPGSWPCNPKCDGRTYNPSEECCVHDTILPFKRINLCGPSCTYRPCFELCCPESYSPKKKFIVKLKVHGERSHCSSSPISRNCKSNKIFHGEDIEDNQLSLRKKSGDQP", "notes": "also called mIGFL-FLAG; mIGFL1"}}, "key": {"EDA-A1": {"target": "T1, EDA-A1 (UniProt Q92838 245-391, limits assumed)", "T1 sequence (looked up)": "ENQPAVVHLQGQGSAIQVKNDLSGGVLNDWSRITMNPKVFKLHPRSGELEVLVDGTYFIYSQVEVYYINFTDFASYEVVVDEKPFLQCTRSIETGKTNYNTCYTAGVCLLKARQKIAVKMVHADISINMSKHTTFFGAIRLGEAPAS", "assay": "SPR screen of TNF-like ligands", "description": "(§1) Surface plasmon resonance (SPR) was run on a BiaCore 3000 (GE healthcare, Piscataway, N.J.) at 25° C. using anti-human IgG F(ab′)₂ (Jackson Immunoresearch, West Grove, Pa.) amine-coupled to BiaCore CM5 sensor chips. For kinetic analysis of protein interactions, Fc-fusion proteins at 25 μg/ml were first captured onto sensor chips by injecting them for 3 min at 5 μl/min. Then, test proteins diluted to their indicated concentrations in HBS-P buffer (0.01 M Hepes, pH 7.4 0.15 M NaCl 0.005% Surfactant P20) were injected for 3 min at 30 μl/min. Dissociation in HBS-P buffer alone was then measured at a flow rate of […]. Sensor chips surfaces were regenerated by injecting 10 mM glycine pH 1.5 for 30 s after each cycle. Kinetic parameters were determined by fitting the data to a 1:1 Langmuir model using the Biacore 3000 evaluation software (GE Healthcare)."}, "TNFα": {"target": "TNFα (UniProt P01375 77-233)", "sequence (P01375 77-233 limits assumed)": "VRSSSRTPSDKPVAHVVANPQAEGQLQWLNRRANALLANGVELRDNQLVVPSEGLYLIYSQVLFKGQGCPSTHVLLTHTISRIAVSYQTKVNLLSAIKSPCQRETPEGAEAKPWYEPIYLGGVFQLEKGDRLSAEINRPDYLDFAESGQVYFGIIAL", "assay": "SPR screen of TNF-like ligands", "description": "as §1"}, "TRAIL": {"target": "TRAIL (UniProt P50591 114-281)", "sequence (P50591 114-281 limits assumed)": "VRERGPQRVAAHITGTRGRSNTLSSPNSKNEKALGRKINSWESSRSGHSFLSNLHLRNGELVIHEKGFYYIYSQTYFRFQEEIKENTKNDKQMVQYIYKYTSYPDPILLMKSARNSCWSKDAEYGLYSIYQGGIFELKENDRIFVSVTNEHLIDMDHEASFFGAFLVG", "assay": "SPR screen of TNF-like ligands", "description": "as §1"}, "FasL": {"target": "T2, FasL (UniProt P48023 134-281)", "T2 sequence (looked up)": "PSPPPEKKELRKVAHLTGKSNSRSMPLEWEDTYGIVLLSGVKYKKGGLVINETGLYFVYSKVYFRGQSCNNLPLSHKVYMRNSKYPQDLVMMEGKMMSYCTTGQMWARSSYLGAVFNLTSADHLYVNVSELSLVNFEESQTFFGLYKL", "assay": "SPR screen of TNF-like ligands", "description": "as §1"}, "4-1 BBL": {"target": "4-1 BBL (UniProt P41273 71-254, limits assumed)", "sequence (P41273 71-254 limits assumed)": "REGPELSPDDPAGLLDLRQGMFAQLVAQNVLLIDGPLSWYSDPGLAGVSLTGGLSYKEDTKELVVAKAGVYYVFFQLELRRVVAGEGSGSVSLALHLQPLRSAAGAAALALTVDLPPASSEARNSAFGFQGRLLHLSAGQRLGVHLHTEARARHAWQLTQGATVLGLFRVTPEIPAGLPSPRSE", "assay": "SPR screen of TNF-like ligands", "description": "as §1"}, "APRIL": {"target": "T3, APRIL (UniProt O75888 105-250, limits assumed)", "T3 sequence (looked up)": "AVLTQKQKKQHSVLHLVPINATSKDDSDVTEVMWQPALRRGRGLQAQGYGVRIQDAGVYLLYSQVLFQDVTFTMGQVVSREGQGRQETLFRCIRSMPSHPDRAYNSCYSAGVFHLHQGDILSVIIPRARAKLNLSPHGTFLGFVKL", "assay": "SPR screen of TNF-like ligands", "description": "as §1"}, "CD30L": {"target": "T4, CD30L (UniProt P32971 63-234)", "T4 sequence (looked up)": "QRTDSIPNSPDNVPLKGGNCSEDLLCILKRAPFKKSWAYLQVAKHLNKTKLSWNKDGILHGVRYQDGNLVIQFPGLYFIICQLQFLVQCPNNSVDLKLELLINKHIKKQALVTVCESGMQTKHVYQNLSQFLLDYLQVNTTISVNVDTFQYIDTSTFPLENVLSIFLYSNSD", "assay": "SPR screen of TNF-like ligands", "description": "as §1"}, "CD27L": {"target": "T5, CD27L (UniProt P32970 39-193, limits assumed)", "T5 sequence (looked up)": "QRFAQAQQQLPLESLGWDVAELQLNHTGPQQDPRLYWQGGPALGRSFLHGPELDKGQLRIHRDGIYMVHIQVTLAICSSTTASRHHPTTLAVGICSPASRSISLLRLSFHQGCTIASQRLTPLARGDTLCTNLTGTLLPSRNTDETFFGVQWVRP", "assay": "SPR screen of TNF-like ligands", "description": "as §1"}, "TNFSF14": {"target": "TNFSF14 (UniProt O43557 74-240, limits assumed)", "sequence (O43557 74-240 limits assumed)": "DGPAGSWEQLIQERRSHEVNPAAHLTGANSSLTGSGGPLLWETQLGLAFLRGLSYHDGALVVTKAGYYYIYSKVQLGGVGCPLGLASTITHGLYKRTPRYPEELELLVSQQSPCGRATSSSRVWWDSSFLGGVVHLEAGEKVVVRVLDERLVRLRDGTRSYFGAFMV", "assay": "SPR screen of TNF-like ligands", "description": "as §1"}, "LTα": {"target": "T6, LTα (UniProt P01374 35-205)", "T6 sequence (looked up)": "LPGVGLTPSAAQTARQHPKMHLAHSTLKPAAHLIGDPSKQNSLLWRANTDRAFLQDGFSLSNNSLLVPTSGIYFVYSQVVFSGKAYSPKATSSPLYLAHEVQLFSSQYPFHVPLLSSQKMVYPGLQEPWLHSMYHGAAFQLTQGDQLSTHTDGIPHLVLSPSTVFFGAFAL", "assay": "SPR screen of TNF-like ligands", "description": "as §1"}, "BAFF": {"target": "BAFF (UniProt Q9Y275 134-285, limits assumed)", "sequence (Q9Y275 134-285 limits assumed)": "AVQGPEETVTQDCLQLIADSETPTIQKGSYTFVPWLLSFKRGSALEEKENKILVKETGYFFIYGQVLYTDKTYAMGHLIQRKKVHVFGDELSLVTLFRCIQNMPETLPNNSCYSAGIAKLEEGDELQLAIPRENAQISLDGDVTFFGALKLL", "assay": "SPR screen of TNF-like ligands", "description": "as §1"}, "TL1A": {"target": "T7, TL1A (UniProt O95150 72-251)", "T7 sequence (looked up)": "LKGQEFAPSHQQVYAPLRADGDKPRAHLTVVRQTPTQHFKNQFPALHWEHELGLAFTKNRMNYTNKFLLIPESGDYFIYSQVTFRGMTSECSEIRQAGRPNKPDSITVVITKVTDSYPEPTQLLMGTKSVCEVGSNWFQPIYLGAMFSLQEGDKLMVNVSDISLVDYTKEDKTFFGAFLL", "assay": "SPR screen of TNF-like ligands", "description": "as §1"}, "RANKL": {"target": "T8, RANKL (UniProt O14788 140-317, limits assumed)", "T8 sequence (looked up)": "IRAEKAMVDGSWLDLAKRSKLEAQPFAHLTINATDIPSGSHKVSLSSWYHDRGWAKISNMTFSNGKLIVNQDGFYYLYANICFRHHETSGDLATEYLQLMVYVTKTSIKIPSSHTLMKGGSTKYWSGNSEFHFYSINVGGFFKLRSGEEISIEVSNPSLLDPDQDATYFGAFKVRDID", "assay": "SPR screen of TNF-like ligands", "description": "as §1"}, "[1]": {"target": "T9, mTMEM149-Fc (mouse TMEM149 extracellular domain with C-terminal human IgG1 Fc) (mouse; human, UniProt Q3U4N7 21-163)", "T9 construct": "Only the predicted extracellular domain, without the transmembrane domain, was used; the signal peptide is residues 1-22; not shown: human IgG1 Fc, C-terminal", "T9 sequence": "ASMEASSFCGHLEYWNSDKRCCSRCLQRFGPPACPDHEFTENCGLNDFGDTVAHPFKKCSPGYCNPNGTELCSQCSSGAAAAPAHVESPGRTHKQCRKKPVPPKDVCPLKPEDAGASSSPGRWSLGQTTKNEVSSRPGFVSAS", "assay": "SPR, mTMEM149-Fc captured on the chip", "description": "as §1"}, "[2]": {"target": "T10, Mouse TMEM149 on the cell surface (transfected 293T cells; mouse T cells) (mouse, UniProt Q3U4N7 23-345)", "T10 construct": "also called mTMEM149; murine TMEM149", "T10 sequence": "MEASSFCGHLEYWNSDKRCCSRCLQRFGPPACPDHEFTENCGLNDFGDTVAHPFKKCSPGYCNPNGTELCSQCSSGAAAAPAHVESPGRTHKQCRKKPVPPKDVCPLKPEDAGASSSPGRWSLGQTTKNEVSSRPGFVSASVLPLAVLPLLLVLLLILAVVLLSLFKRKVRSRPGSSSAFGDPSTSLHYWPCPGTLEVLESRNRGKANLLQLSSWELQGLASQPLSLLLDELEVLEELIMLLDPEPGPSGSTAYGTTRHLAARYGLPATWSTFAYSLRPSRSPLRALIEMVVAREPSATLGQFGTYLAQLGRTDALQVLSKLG", "assay": "radioligand competition assay; 125I-FLAG-mIGFL against unlabelled ligand on 293T cells expressing mouse TMEM149", "description": "(§2) Reference is made to Example 11.\n(§3) To determine the affinity of IGFL with TMEM149, ligands were iodinated with ¹²⁵I using the lactoperoxidase method and free ¹²⁵I-Na was removed from the labeled protein by gel filtration using a NAP-5 column. 50 μL competition reaction mixtures containing a fixed concentration of iodinated ligand and decreasing concentrations of serially diluted, unlabeled ligand were placed into 96-well plates in triplicate. To each well, HEK293T cells stably expressing human or mouse TMEM149 were added at a density of 100,000 cells in 0.2 mL of binding buffer (Dulbecco's Modified Eagle Medium with 1% bovine serum albumin, 50 mM HEPES pH 7.2 and 2 mM sodium azide). The final concentration of the iodinated ligand with cells in each competition reaction was 100 pM (100,000 cpms per 0.25 mL). The final concentration of the unlabeled ligand with cells in the competition reaction varied, starting at 500 nM and then decreasing by […] dilution for ten concentrations, and included a zero-added, buffer-only sample. […] The filters were counted on a Wallac Wizard 1470 gamma counter (PerkinElmer Life and Analytical Sciences Inc.; Wellesley, Mass.). The binding data was evaluated using NewLigand software (Genentech), which uses the fitting algorithm of Munson and Robard to determine the binding affinity of the antibody (Munson, P. J., and D. Rodbard. 1980."}, "[3]": {"target": "T10, Mouse TMEM149 on the cell surface …", "assay": "radioligand competition: 125I-FLAG-mIGFL (100 pM) on 293T cells expressing murine TMEM149, unlabelled FLAG-mIGFL varied", "description": "as §2, §3"}, "[4]": {"target": "T11, DR4 on transfected 293T cells (UniProt O00220 24-468, limits assumed)", "T11 construct": "whole, on cells", "T11 sequence (looked up)": "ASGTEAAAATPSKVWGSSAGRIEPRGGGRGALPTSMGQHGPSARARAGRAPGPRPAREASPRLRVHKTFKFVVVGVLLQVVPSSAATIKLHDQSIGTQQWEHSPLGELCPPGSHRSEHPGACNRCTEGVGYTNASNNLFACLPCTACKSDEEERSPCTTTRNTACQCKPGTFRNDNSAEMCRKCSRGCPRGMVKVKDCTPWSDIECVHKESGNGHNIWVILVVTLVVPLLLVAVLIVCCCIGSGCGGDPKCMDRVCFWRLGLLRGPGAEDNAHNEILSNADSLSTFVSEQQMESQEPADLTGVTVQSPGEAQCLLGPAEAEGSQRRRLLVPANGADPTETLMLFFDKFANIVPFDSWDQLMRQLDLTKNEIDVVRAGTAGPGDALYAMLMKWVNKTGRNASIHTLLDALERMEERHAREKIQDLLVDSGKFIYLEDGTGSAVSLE", "assay": "flow cytometry of transfected 293T cells, FLAG-mIGFL detected with fluorescent anti-FLAG"}, "[5]": {"target": "T12, nerve growth factor receptor (NGFR) on transfected 293T cells (UniProt P08138 29-427, limits assumed)", "T12 construct": "whole, on cells", "T12 sequence (looked up)": "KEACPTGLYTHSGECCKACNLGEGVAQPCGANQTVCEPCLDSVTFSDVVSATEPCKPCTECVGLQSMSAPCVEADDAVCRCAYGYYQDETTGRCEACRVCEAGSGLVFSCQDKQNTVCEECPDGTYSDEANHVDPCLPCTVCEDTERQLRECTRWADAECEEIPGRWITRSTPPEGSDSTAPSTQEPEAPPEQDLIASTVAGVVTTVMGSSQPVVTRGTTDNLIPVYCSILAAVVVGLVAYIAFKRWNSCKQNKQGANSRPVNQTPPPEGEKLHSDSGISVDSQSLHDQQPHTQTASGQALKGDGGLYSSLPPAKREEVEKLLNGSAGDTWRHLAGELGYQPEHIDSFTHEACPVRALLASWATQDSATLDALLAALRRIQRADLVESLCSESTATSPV", "assay": "flow cytometry of transfected 293T cells, FLAG-mIGFL detected with fluorescent anti-FLAG"}}}
{"binder": "B1", "values": [{"measurement": "binding result", "setting": "EDA-A1", "value": "no binding"}, {"measurement": "binding result", "setting": "TNFα", "value": "no binding"}, {"measurement": "binding result", "setting": "TRAIL", "value": "no binding"}, {"measurement": "binding result", "setting": "FasL", "value": "no binding"}, {"measurement": "binding result", "setting": "4-1 BBL", "value": "no binding"}, {"measurement": "binding result", "setting": "APRIL", "value": "no binding"}, {"measurement": "binding result", "setting": "CD30L", "value": "no binding"}, {"measurement": "binding result", "setting": "CD27L", "value": "no binding"}, {"measurement": "binding result", "setting": "TNFSF14", "value": "no binding"}, {"measurement": "binding result", "setting": "LTα", "value": "no binding"}, {"measurement": "binding result", "setting": "BAFF", "value": "no binding"}, {"measurement": "binding result", "setting": "TL1A", "value": "no binding"}, {"measurement": "binding result", "setting": "RANKL", "value": "no binding"}]}
{"binder": "B2", "values": [{"measurement": "Kd", "setting": "[1]", "value": 0.15, "unit": "nM"}, {"measurement": "Kd", "setting": "[2]", "value": 0.73, "unit": "nM"}, {"measurement": "IC50 (read off the curve)", "setting": "[3]", "value": "~0.8", "unit": "nM"}, {"measurement": "binding result", "setting": "[4]", "value": "no binding"}, {"measurement": "binding result", "setting": "[5]", "value": "no binding"}]}
